Reference: PMC2713044

Target: Hen egg white lysozyme (HEL) (UniProt P00698)
Assay: isothermal titration calorimetry
Conditions: pH 8.0, 25.0 °C, no added salt (10 mM buffer only), 10 mM Tris

Sequence of UniProt P00698 (P00698 whole entry): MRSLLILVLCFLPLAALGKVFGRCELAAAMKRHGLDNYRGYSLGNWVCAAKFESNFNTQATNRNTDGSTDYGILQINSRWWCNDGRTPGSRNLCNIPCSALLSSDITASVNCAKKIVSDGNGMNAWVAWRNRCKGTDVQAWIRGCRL

ΔH: -20.5 kcal/mol
Substance: HyHEL-10 (HH10) monoclonal antibody, whole IgG1
